{"source": "patent US20090214547A1", "binders": {"B1": {"name": "22-1C11.1 (antibody, V domains shown)", "VH": "VKLQESGGGVVQPGRSLRLSCAASGFTFSNYGMHWVRQAPGKGLEWVAVIWYDGSNKYYADFVKGRFTISRDNSKNTLYLQMNSLRAEDTAVYYCARRGNYYGLGSFYYYGMDVWGQGTTVTVSS", "VL": "DIQMTQSPATLSLSPGERATLSCRASQSVSSYLAWYQQKPGQAPRLLIYDASNRATGIPARFSGSGSGTDFTLTISSLEPEDFAVYYCQQCSNWHPTFGQGTKLEIKR"}}, "key": {"PsaA Peptide 9144 [1]": {"target": "PsaA Peptide 9144", "assay": "peptide ELISA, plate 2 overview"}, "Peptide GNT-05 [2]": {"target": "Peptide GNT-05", "assay": "peptide ELISA, plate 2 overview"}, "Peptide GNT-062 [3]": {"target": "Peptide GNT-062", "assay": "peptide ELISA, plate 2 overview"}, "Peptide GNT-14 [4]": {"target": "Peptide GNT-14", "assay": "peptide ELISA, plate 2 overview"}, "Peptide GNT-08 [5]": {"target": "Peptide GNT-08", "assay": "peptide ELISA, plate 2 overview"}, "Peptide GNT-06 [6]": {"target": "Peptide GNT-06", "assay": "peptide ELISA, plate 2 overview"}, "Peptide GNT-01 [7]": {"target": "Peptide GNT-01", "assay": "peptide ELISA, plate 2 overview"}, "Peptide GNT-10 [8]": {"target": "Peptide GNT-10", "assay": "peptide ELISA, plate 2 overview"}, "Peptide GNT-04 [9]": {"target": "Peptide GNT-04", "assay": "peptide ELISA, plate 2 overview"}, "PLY Peptide 10146 [10]": {"target": "PLY Peptide 10146", "assay": "peptide ELISA, plate 2 overview"}, "Peptide GNT-09 [11]": {"target": "Peptide GNT-09", "assay": "peptide ELISA, plate 2 overview"}, "Peptide GNT-061 [12]": {"target": "Peptide GNT-061", "assay": "peptide ELISA, plate 2 overview"}, "Peptide GNT-13 [13]": {"target": "Peptide GNT-13", "assay": "peptide ELISA, plate 2 overview"}, "Peptide GNT-07 [14]": {"target": "Peptide GNT-07", "assay": "peptide ELISA, plate 2 overview"}, "Peptide GNT-02 [15]": {"target": "Peptide GNT-02", "assay": "peptide ELISA, plate 2 overview"}, "PsaA Peptide 9144 [16]": {"target": "PsaA Peptide 9144", "assay": "peptide ELISA, plate 1 overview"}, "Peptide GNT-14 [17]": {"target": "Peptide GNT-14", "assay": "peptide ELISA, plate 1 overview"}, "Peptide GNT-08 [18]": {"target": "Peptide GNT-08", "assay": "peptide ELISA, plate 1 overview"}, "Peptide GNT-01 [19]": {"target": "Peptide GNT-01", "assay": "peptide ELISA, plate 1 overview"}, "PLY Peptide 10146 [20]": {"target": "PLY Peptide 10146", "assay": "peptide ELISA, plate 1 overview"}, "Peptide GNT-13 [21]": {"target": "Peptide GNT-13", "assay": "peptide ELISA, plate 1 overview"}, "Peptide GNT-07 [22]": {"target": "Peptide GNT-07", "assay": "peptide ELISA, plate 1 overview"}, "Peptide GNT-02 [23]": {"target": "Peptide GNT-02", "assay": "peptide ELISA, plate 1 overview"}, "PsaA Peptide 9144 [24]": {"target": "PsaA Peptide 9144", "assay": "peptide ELISA, plate 1"}, "Peptide GNT-14 [25]": {"target": "Peptide GNT-14", "assay": "peptide ELISA, plate 1"}, "Peptide GNT-08 [26]": {"target": "Peptide GNT-08", "assay": "peptide ELISA, plate 1"}, "Peptide GNT-01 [27]": {"target": "Peptide GNT-01", "assay": "peptide ELISA, plate 1"}, "PLY Peptide 10146 [28]": {"target": "PLY Peptide 10146", "assay": "peptide ELISA, plate 1"}, "Peptide GNT-13 [29]": {"target": "Peptide GNT-13", "assay": "peptide ELISA, plate 1"}, "Peptide GNT-02 [30]": {"target": "Peptide GNT-02", "assay": "peptide ELISA, plate 1"}, "PsaA Peptide 9144 [31]": {"target": "PsaA Peptide 9144", "assay": "peptide ELISA, plate 2"}, "Peptide GNT-05 [32]": {"target": "Peptide GNT-05", "assay": "peptide ELISA, plate 2"}, "Peptide GNT-062 [33]": {"target": "Peptide GNT-062", "assay": "peptide ELISA, plate 2"}, "Peptide GNT-14 [34]": {"target": "Peptide GNT-14", "assay": "peptide ELISA, plate 2"}, "Peptide GNT-08 [35]": {"target": "Peptide GNT-08", "assay": "peptide ELISA, plate 2"}, "Peptide GNT-06 [36]": {"target": "Peptide GNT-06", "assay": "peptide ELISA, plate 2"}, "Peptide GNT-01 [37]": {"target": "Peptide GNT-01", "assay": "peptide ELISA, plate 2"}, "Peptide GNT-10 [38]": {"target": "Peptide GNT-10", "assay": "peptide ELISA, plate 2"}, "Peptide GNT-04 [39]": {"target": "Peptide GNT-04", "assay": "peptide ELISA, plate 2"}, "PLY Peptide 10146 [40]": {"target": "PLY Peptide 10146", "assay": "peptide ELISA, plate 2"}, "Peptide GNT-09 [41]": {"target": "Peptide GNT-09", "assay": "peptide ELISA, plate 2"}, "Peptide GNT-061 [42]": {"target": "Peptide GNT-061", "assay": "peptide ELISA, plate 2"}, "Peptide GNT-13 [43]": {"target": "Peptide GNT-13", "assay": "peptide ELISA, plate 2"}, "Peptide GNT-07 [44]": {"target": "Peptide GNT-07", "assay": "peptide ELISA, plate 2"}}, "note": "Values joined by “and” are separate entries in the source; they are usually repeats but may differ in a detail not shown here. Identical values can stand only once.", "data": [{"binder": "B1", "values": [{"measurement": "Elisa reading", "setting": "PsaA Peptide 9144 [1]", "result": 0.54}, {"measurement": "Elisa reading", "setting": "Peptide GNT-05 [2]", "result": 0.82}, {"measurement": "Elisa reading", "setting": "Peptide GNT-062 [3]", "result": 0.84}, {"measurement": "Elisa reading", "setting": "Peptide GNT-14 [4]", "result": 0.26}, {"measurement": "Elisa reading", "setting": "Peptide GNT-08 [5]", "result": 0.73}, {"measurement": "Elisa reading", "setting": "Peptide GNT-06 [6]", "result": 0.56}, {"measurement": "Elisa reading", "setting": "Peptide GNT-01 [7]", "result": 1.27}, {"measurement": "Elisa reading", "setting": "Peptide GNT-10 [8]", "result": 0.4}, {"measurement": "Elisa reading", "setting": "Peptide GNT-04 [9]", "result": 0.75}, {"measurement": "Elisa reading", "setting": "PLY Peptide 10146 [10]", "result": 1.58}, {"measurement": "Elisa reading", "setting": "Peptide GNT-09 [11]", "result": 0.48}, {"measurement": "Elisa reading", "setting": "Peptide GNT-061 [12]", "result": 0.61}, {"measurement": "Elisa reading", "setting": "Peptide GNT-13 [13]", "result": 0.26}, {"measurement": "Elisa reading", "setting": "Peptide GNT-07 [14]", "result": 0.68}, {"measurement": "Elisa reading", "setting": "Peptide GNT-02 [15]", "result": "> 3"}, {"measurement": "Elisa reading", "setting": "PsaA Peptide 9144 [16]", "result": 0.16}, {"measurement": "Elisa reading", "setting": "Peptide GNT-14 [17]", "result": 0.1}, {"measurement": "Elisa reading", "setting": "Peptide GNT-08 [18]", "result": 0.71}, {"measurement": "Elisa reading", "setting": "Peptide GNT-01 [19]", "result": 0.72}, {"measurement": "Elisa reading", "setting": "PLY Peptide 10146 [20]", "result": 1.09}, {"measurement": "Elisa reading", "setting": "Peptide GNT-13 [21]", "result": 0.11}, {"measurement": "Elisa reading", "setting": "Peptide GNT-07 [22]", "result": 0.24}, {"measurement": "Elisa reading", "setting": "Peptide GNT-02 [23]", "result": 2.05}, {"measurement": "Elisa reading", "setting": "PsaA Peptide 9144 [24]", "result": "0.16 and 0.1 and 0.19"}, {"measurement": "Elisa reading", "setting": "Peptide GNT-14 [25]", "result": "0.1 and 0.22"}, {"measurement": "Elisa reading", "setting": "Peptide GNT-08 [26]", "result": "0.71 and 0.91 and 1.52"}, {"measurement": "Elisa reading", "setting": "Peptide GNT-01 [27]", "result": "0.72 and 1.16 and 1.7"}, {"measurement": "Elisa reading", "setting": "PLY Peptide 10146 [28]", "result": "1.09 and 1.71 and 2.24"}, {"measurement": "Elisa reading", "setting": "Peptide GNT-13 [29]", "result": "0.11 and 0.12 and 0.25"}, {"measurement": "Elisa reading", "setting": "Peptide GNT-02 [30]", "result": "2.05 and 2.51 and 3"}, {"measurement": "Elisa reading", "setting": "PsaA Peptide 9144 [31]", "result": 0.539}, {"measurement": "Elisa reading", "setting": "Peptide GNT-05 [32]", "result": 0.816}, {"measurement": "Elisa reading", "setting": "Peptide GNT-062 [33]", "result": 0.844}, {"measurement": "Elisa reading", "setting": "Peptide GNT-14 [34]", "result": 0.257}, {"measurement": "Elisa reading", "setting": "Peptide GNT-08 [35]", "result": 0.73}, {"measurement": "Elisa reading", "setting": "Peptide GNT-06 [36]", "result": 0.56}, {"measurement": "Elisa reading", "setting": "Peptide GNT-01 [37]", "result": 1.27}, {"measurement": "Elisa reading", "setting": "Peptide GNT-10 [38]", "result": 0.403}, {"measurement": "Elisa reading", "setting": "Peptide GNT-04 [39]", "result": 0.748}, {"measurement": "Elisa reading", "setting": "PLY Peptide 10146 [40]", "result": 1.58}, {"measurement": "Elisa reading", "setting": "Peptide GNT-09 [41]", "result": 0.475}, {"measurement": "Elisa reading", "setting": "Peptide GNT-061 [42]", "result": 0.61}, {"measurement": "Elisa reading", "setting": "Peptide GNT-13 [43]", "result": 0.264}, {"measurement": "Elisa reading", "setting": "Peptide GNT-07 [44]", "result": 0.681}]}]}
